Test results as given in patent US20230242658A1 (published 2023).
Values belong to the binder of their own block, whether it stands above or below them.

What was measured:
[1] = target: T1, human 4-1BB on CHO-K1 cells (human, UniProt Q07011 24-255); experiment: FACS blocking of 4-1BBL binding
[2] = target: T2, cynomolgus monkey 4-1BB on CHO-K1 cells (cynomolgus monkey); experiment: FACS; FIG. 12G
T2 chain: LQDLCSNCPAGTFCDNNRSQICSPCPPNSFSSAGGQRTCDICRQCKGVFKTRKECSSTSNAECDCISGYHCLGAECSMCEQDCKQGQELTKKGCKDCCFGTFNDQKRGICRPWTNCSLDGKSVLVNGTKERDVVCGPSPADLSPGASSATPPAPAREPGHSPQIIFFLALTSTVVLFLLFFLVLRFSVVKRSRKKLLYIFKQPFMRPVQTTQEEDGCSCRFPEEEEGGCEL

[3] = target: T2, cynomolgus monkey 4-1BB on CHO-K1 cells; experiment: FACS; FIG. 12F
[4] = target: T1, human 4-1BB on CHO-K1 cells; experiment: FACS; FIG. 11H
[5] = target: T1, human 4-1BB on CHO-K1 cells; experiment: FACS blocking of 4-1BBL; FIG. 14F
[6] = target: T1, human 4-1BB on CHO-K1 cells; experiment: FACS
Target sequence in this assay (Q07011 24-255): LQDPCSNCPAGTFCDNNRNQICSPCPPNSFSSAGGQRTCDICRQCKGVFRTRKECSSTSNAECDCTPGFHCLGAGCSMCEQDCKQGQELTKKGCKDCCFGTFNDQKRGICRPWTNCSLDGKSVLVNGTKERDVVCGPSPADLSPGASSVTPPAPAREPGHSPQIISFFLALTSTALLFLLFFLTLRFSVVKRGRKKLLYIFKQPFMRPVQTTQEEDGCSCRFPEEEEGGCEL

[7] = target: T3, human PD-L1 on CHO-K1 cells (human, UniProt Q9NZQ7 19-290); experiment: FACS; MDA-MB-231 cells; FIG. 24E
[8] = target: T3, human PD-L1 on CHO-K1 cells; experiment: FACS; MDA-MB-231 cells; FIG. 24D
[9] = target: T3, human PD-L1 on CHO-K1 cells; experiment: FACS; MDA-MB-231 cells; FIG. 24C
[10] = target: T2, cynomolgus monkey 4-1BB on CHO-K1 cells; experiment: FACS; FIG. 12K
[11] = target: T2, cynomolgus monkey 4-1BB on CHO-K1 cells; experiment: FACS
[12] = target: T2, cynomolgus monkey 4-1BB on CHO-K1 cells; experiment: FACS
[13] = target: T2, cynomolgus monkey 4-1BB on CHO-K1 cells; experiment: FACS; FIG. 12B
[14] = target: T2, cynomolgus monkey 4-1BB on CHO-K1 cells; experiment: FACS; FIG. 21A
[15] = target: T2, cynomolgus monkey 4-1BB on CHO-K1 cells; experiment: FACS; FIG. 12I
[16] = target: T2, cynomolgus monkey 4-1BB on CHO-K1 cells; experiment: FACS; FIG. 12E
[17] = target: T2, cynomolgus monkey 4-1BB on CHO-K1 cells; experiment: FACS; FIG. 12L
[18] = target: T2, cynomolgus monkey 4-1BB on CHO-K1 cells; experiment: FACS; FIG. 12C
[19] = target: T2, cynomolgus monkey 4-1BB on CHO-K1 cells; experiment: FACS; FIG. 12A
[20] = target: T2, cynomolgus monkey 4-1BB on CHO-K1 cells; experiment: FACS; FIG. 12H
[21] = target: T2, cynomolgus monkey 4-1BB on CHO-K1 cells; experiment: FACS; FIG. 12D
[22] = target: T2, cynomolgus monkey 4-1BB on CHO-K1 cells; experiment: FACS; FIG. 21B
[23] = target: T2, cynomolgus monkey 4-1BB on CHO-K1 cells; experiment: FACS; FIG. 12J
[24] = target: T1, human 4-1BB on CHO-K1 cells; experiment: FACS; FIG. 11C
[25] = target: T1, human 4-1BB on CHO-K1 cells; experiment: FACS; FIG. 11E
[26] = target: T1, human 4-1BB on CHO-K1 cells; experiment: FACS; FIG. 11D
[27] = target: T1, human 4-1BB on CHO-K1 cells; experiment: FACS; FIG. 11F
[28] = target: T1, human 4-1BB on CHO-K1 cells; experiment: FACS; FIG. 11G
[29] = target: T1, human 4-1BB on CHO-K1 cells; experiment: FACS; FIG. 11L
Target sequence in this assay (Q07011 24-255): as above

[30] = target: T1, human 4-1BB on CHO-K1 cells; experiment: FACS blocking of 4-1BBL; FIG. 14A
[31] = target: T1, human 4-1BB on CHO-K1 cells; experiment: FACS; FIG. 11K
Target sequence in this assay (Q07011 24-255): as above

[32] = target: T1, human 4-1BB on CHO-K1 cells; experiment: FACS blocking of 4-1BBL; FIG. 14C
[33] = target: T1, human 4-1BB on CHO-K1 cells; experiment: FACS; FIG. 11B
[34] = target: T1, human 4-1BB on CHO-K1 cells; experiment: FACS; FIG. 11M
Target sequence in this assay (Q07011 24-255): as above

[35] = target: T1, human 4-1BB on CHO-K1 cells; experiment: FACS blocking of 4-1BBL; FIG. 14B
[36] = target: T1, human 4-1BB on CHO-K1 cells; experiment: FACS; remark: listed apart in the source
Target sequence in this assay (Q07011 24-255): as above

[37] = target: T1, human 4-1BB on CHO-K1 cells; experiment: FACS blocking of 4-1BBL; FIG. 14D

T3 sequence (Q9NZQ7 19-290): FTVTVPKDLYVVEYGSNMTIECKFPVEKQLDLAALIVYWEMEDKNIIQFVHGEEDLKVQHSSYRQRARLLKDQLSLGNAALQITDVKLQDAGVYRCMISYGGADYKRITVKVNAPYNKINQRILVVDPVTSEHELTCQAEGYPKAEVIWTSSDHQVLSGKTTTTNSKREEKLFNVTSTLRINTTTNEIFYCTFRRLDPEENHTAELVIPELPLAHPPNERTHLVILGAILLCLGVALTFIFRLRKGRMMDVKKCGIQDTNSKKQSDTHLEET

EC50 [1]: 2.05 nM
B1: PR000448 (antibody, V domains shown)
VH: QVQLQQWGAGLLKPSETLSLTCAVYGGSFSGYYWSWIRQPPGKGLEWIGEIQHSGSTDSNPSLKGRVTFSVDTSKNQFSLKLNSVTAADTAVYYCARLTGPFDYWGQGTLVTVSS
VL: EIVMTQSPATLSVSPGERATLSCRASQSISSILAWYQQKPGQAPRLLIYGASTRATGIPARFSGSGSGTEFTLTISSLQSEDFAVYYCQQYYNWPLTFGGGTKVEIKR

EC50 [24]: 0.222 nM
EC50 [25]: 0.222 nM
EC50 [26]: 0.222 nM
EC50 [27]: 0.222 nM
EC50 [28]: 0.222 nM
EC50 [29]: 0.565 nM
IC50 [30]: ~2.53 nM
EC50 [31]: 0.583 nM
IC50 [32]: 2.41 nM
EC50 [33]: 0.222 nM
EC50 [34]: 0.55 nM
IC50 [35]: 1.5 nM
EC50 [36]: 0.222 nM
IC50 [37]: 2.37 nM
B5: Urelumab (antibody, V domains shown)
VH: QVQLQQWGAGLLKPSETLSLTCAVYGGSFSGYYWSWIRQSPEKGLEWIGEINHGGYVTYNPSLESRVTISVDTSKNQFSLKLSSVTAADTAVYYCARDYGPGNYDWYFDLWGRGTLVTVSS
VL: EIVLTQSPATLSLSPGERATLSCRASQSVSSYLAWYQQKPGQAPRLLIYDASNRATGIPARFSGSGSGTDFTLTISSLEPEDFAVYYCQQRSNWPPALTFGGGTKVEIKR

Further lines, the binder ahead of its results:

B2: PR001838 (antibody, V domains shown)
VH: EVQLLESGGGLVQPGGSLRLSCAASGFTFSNYAMSWFRQPPETGLKWVSSIDGSGGDTYYADSVKGRFTISRDNSKNTLYLQMNSLRAEDTAVYYCAKEGSHGTDDSHYDVDVWGQGTTVTVSS
EC50 [2]: 0.329 nM
EC50 [3]: 1.09 nM
EC50 [4]: 0.851 nM
IC50 [5]: 1.61 nM
EC50 [6]: 0.248 nM

B3: PR000265 (antibody, V domains shown)
VH: EVQLVESGGGLVQPGGSLRLSCAASGFTFSSYWMSWVRQAPGKGLEWVANIKQEGSEKYYVDSVKGRFTISRDNAKNSLYLQMNSLRAEDTAVYYCARDRAVAGAFDIWGQGTMVTVSS
VL: DIQMTQSPSTLSASVGDRVTVTCRASQSIYIWLAWYQQKPGKAPNLLIYKASSLETGVPSRFSGSGSGTEFTLTISSLQPDDFATYYCQQYYGSSRTFGQGTKVEIKR
EC50 [7]: 0.233 nM
EC50 [8]: 0.233 nM
EC50 [9]: 0.11 nM

B4: Utomilumab (antibody, V domains shown)
VH: EVQLVQSGAEVKKPGESLRISCKGSGYSFSTYWISWVRQMPGKGLEWMGKIYPGDSYTNYSPSFQGQVTISADKSISTAYLQWSSLKASDTAMYYCARGYGIFDYWGQGTLVTVSS
VL: SYELTQPPSVSVSPGQTASITCSGDNIGDQYAHWYQQKPGQSPVLVIYQDKNRPSGIPERFSGSNSGNTATLTISGTQAMDEADYYCATYTGFGSLAVFGGGTKLTVLG
EC50 [10]: 0.503 nM
EC50 [11]: 0.347 nM
EC50 [12]: 0.337 nM
EC50 [3]: 3.46 nM
EC50 [13]: 3.46 nM
EC50 [14]: 1.34 nM
EC50 [15]: 0.378 nM
EC50 [16]: 3.46 nM
EC50 [17]: 0.425 nM
EC50 [18]: 3.46 nM
EC50 [19]: 3.46 nM
EC50 [20]: 0.393 nM
EC50 [21]: 3.46 nM
EC50 [22]: 0.984 nM
EC50 [23]: 0.435 nM
